Target: Desulfofustis deltaproteobacterium ligand-gated ion channel (DeCLIC) (Desulfofustis deltaproteobacterium)
Test: cryo-EM structure; DeCLIC in DDM detergent micelles, pH 7, two datasets: with 10 mM Ca2+ and Ca2+-free (chelated); C5 symmetry; homopentamer

Desulfofustis deltaproteobacterium ligand-gated ion channel (DeCLIC) (natural protein)
stoichiometry N: 5

Source: publication PMC9897478
